Residues, ends and D or L forms follow the SMILES beside them. *: point of attachment. AMC = Cc1cc(=O)oc2cc(N*)ccc12; Cbz = O=C(OCc1ccccc1)*; CH2Cl = ClC*; CH2F = FC*
B1: N-acetyl-Leu-Glu-Ser-Asp-chloromethylketone (peptide)
peptide: Ac-LESD-CH2Cl
SMILES: CC(=O)N[C@@H](CC(C)C)C(=O)N[C@@H](CCC(=O)O)C(=O)N[C@@H](CO)C(=O)N[C@@H](CC(=O)O)C(=O)CCl

How the values were obtained:
[1] = molecular target: T1, caspase-9 (Homo sapiens, UniProt P55211); test: In vitro inhibition assay, caspase-9; type: biochemical
T1 sequence (P55211 1-315 limits assumed): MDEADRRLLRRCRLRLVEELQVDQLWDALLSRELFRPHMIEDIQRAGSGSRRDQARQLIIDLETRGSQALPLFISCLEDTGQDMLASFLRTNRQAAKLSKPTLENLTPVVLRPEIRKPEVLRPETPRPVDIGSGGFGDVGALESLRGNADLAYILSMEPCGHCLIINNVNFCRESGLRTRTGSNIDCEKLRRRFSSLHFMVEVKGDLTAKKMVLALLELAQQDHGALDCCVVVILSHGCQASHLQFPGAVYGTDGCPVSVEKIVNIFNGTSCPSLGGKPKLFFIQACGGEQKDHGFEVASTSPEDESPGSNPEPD
T1 sequence (P55211 331-416 limits assumed): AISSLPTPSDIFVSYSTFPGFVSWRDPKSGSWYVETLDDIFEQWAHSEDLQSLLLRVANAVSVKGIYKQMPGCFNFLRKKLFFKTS

[2] = tested on: HCC1806 triple-negative breast cancer cells; test: TNF-α-induced extrinsic apoptosis in HCC1806 cells; settings: 10 μM inhibitor 30 min, then TNF-α; early time points (2–6 h)
[3] = tested on: THP1 monocytes; test: TRAIL-induced extrinsic apoptosis in THP1 monocytes; type: cell-based, human; settings: 25 μM inhibitor
[4] = molecular target: T2, caspase-1 (Homo sapiens, UniProt P29466); test: In vitro substrate kinetics, caspase-1; type: biochemical; settings: caspase-1, 0.25 activity units/μL
T2 sequence (P29466 120-297 limits assumed): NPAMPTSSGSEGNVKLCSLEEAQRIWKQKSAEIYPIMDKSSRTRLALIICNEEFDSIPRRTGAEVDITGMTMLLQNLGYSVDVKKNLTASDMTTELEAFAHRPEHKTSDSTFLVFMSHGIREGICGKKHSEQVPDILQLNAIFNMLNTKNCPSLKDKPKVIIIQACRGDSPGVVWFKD
T2 sequence (P29466 317-404 limits assumed): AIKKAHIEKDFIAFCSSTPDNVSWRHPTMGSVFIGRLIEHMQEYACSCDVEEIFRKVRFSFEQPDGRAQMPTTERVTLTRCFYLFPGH

[5] = molecular target: T3, caspase-3 (Homo sapiens, UniProt P42574); test: In vitro substrate kinetics, caspase-3; type: biochemical; settings: caspase-3, 0.25 activity units/μL
T3 sequence (P42574 29-175 limits assumed): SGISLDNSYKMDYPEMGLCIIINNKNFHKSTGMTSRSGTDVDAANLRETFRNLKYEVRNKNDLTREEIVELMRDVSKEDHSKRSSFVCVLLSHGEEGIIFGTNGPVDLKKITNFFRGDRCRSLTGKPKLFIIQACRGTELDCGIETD
T3 sequence (P42574 176-277 limits assumed): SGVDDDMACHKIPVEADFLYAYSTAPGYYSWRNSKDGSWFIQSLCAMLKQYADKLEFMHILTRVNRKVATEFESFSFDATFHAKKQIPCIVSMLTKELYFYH

[6] = molecular target: T4, caspase-4 (Homo sapiens, UniProt P49662); test: In vitro substrate kinetics, caspase-4; type: biochemical; settings: caspase-4, 0.25 activity units/μL
T4 sequence (P49662 81-270 limits assumed): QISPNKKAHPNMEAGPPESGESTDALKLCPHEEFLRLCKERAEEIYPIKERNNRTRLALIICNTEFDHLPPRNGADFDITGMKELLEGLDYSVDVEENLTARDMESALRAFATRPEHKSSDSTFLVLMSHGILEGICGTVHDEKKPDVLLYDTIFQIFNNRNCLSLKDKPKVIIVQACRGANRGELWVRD
T4 sequence (P49662 290-377 limits assumed): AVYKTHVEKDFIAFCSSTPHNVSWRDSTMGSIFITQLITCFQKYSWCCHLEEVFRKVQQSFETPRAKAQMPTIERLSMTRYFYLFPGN

[7] = molecular target: T5, caspase-6 (Homo sapiens, UniProt P55212); test: In vitro substrate kinetics, caspase-6; type: biochemical; settings: caspase-6, 0.25 activity units/μL
T5 sequence (P55212 24-179 limits assumed): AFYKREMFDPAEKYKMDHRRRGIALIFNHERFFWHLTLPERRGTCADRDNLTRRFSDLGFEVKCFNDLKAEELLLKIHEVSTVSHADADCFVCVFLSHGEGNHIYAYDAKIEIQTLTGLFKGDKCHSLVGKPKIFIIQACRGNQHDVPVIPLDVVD
T5 sequence (P55212 194-293 limits assumed): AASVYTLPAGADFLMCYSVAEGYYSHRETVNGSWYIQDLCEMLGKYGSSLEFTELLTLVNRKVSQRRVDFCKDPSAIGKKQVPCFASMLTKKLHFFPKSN

[8] = molecular target: T6, caspase-7 (Homo sapiens, UniProt P55210); test: In vitro substrate kinetics, caspase-7; type: biochemical; settings: caspase-7, 0.25 activity units/μL
T6 sequence (P55210 24-198 limits assumed): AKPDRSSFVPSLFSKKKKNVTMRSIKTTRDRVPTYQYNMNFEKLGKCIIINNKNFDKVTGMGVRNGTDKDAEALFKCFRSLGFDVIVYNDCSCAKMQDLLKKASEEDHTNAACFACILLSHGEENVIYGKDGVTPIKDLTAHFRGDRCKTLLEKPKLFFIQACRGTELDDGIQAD
T6 sequence (P55210 207-303 limits assumed): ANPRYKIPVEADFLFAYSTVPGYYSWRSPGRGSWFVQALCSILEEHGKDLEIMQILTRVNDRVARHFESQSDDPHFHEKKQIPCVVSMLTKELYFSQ

[9] = molecular target: caspase-8 (Homo sapiens, UniProt Q14790); test: In vitro substrate kinetics, caspase-8; type: biochemical; settings: for K M / Relative k cat/K M / V max: caspase-8, 0.25 activity units/μL
caspase-8, sequence (Q14790 217-374 limits assumed): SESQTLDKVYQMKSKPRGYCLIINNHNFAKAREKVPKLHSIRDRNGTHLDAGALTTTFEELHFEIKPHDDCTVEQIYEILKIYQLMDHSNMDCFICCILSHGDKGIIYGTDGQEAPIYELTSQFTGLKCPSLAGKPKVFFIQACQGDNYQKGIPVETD
caspase-8, sequence (Q14790 385-479 limits assumed): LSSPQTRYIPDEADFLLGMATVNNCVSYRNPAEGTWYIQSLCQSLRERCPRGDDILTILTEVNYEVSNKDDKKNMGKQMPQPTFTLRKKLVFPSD

[10] = molecular target: T7, caspase-10 (Homo sapiens, UniProt Q92851); test: In vitro substrate kinetics, caspase-10; type: biochemical; settings: for K M / Relative k cat/K M / V max: caspase-10, 0.25 activity units/μL
T7 sequence (Q92851 220-415 limits assumed): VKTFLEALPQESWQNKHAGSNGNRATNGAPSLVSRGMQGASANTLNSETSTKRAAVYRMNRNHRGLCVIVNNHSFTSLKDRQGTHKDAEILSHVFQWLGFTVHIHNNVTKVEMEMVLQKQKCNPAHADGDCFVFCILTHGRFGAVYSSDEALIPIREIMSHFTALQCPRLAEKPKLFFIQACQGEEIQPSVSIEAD
T7 sequence (Q92851 416-521 limits assumed): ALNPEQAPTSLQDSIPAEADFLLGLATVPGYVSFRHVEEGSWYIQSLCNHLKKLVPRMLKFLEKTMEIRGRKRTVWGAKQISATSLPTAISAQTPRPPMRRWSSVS

[11] = molecular target: T8, caspase-9 (full-length) (Homo sapiens, UniProt P55211); test: In vitro substrate kinetics, caspase-9; settings: caspase-9, 1 activity unit/μL, different preparation
T8 sequence (P55211 1-315 limits assumed): T1 sequence (P55211 1-315 limits assumed)
T8 sequence (P55211 331-416 limits assumed): T1 sequence (P55211 331-416 limits assumed)

[12] = molecular target: T9, caspase-5 (Homo sapiens, UniProt P51878); test: In vitro substrate kinetics, caspase-5; type: biochemical
T9 sequence (P51878 137-327 limits assumed): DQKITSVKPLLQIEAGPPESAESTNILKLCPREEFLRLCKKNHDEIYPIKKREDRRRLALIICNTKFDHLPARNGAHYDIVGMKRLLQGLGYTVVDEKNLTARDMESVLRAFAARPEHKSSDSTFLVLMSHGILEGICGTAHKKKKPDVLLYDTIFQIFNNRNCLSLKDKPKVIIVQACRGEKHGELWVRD
T9 sequence (P51878 347-434 limits assumed): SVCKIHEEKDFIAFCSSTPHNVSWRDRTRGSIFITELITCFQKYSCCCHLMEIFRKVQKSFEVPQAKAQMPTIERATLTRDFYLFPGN

[13] = molecular target: T10, caspase-11 (Mus musculus, UniProt P70343); test: In vitro substrate kinetics, caspase-11; type: biochemical
T10 sequence (P70343 81-266 limits assumed): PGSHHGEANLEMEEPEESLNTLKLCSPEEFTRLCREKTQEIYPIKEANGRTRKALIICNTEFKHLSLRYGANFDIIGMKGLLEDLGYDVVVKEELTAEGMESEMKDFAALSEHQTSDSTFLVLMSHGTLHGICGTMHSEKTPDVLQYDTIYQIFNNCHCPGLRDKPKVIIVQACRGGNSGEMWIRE
T10 sequence (P70343 286-373 limits assumed): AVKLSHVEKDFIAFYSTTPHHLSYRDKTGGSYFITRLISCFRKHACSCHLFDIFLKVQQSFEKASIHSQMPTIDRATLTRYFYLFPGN

[14] = molecular target: Caspase-9 (full-length) (human), (recombinant) (human) (UniProt P55211)
[15] = caspase-5, 0.25 activity units/μL
[16] = mouse caspase-11, 0.25 activity units/μL

Molecule	IC50 [1]	K M [4]	Relative k cat/K M [4]	V max [4]	Relative k cat/K M [5]	K M [6]	Relative k cat/K M [6]	V max [6]	Relative k cat/K M [7]	Relative k cat/K M [8]	K M [9]	Relative k cat/K M [9]	V max [9]	K M [10]	Relative k cat/K M [10]	V max [10]	Relative k cat/K M [11]	also measured
CCO[C@@H]1OC(=O)C[C@@H]1NC(=O)[C@@H]1CCCN1C(=O)[C@@H](NC(=O)c1ccc(N)c(Cl)c1)C(C)(C)C [VX-765, (S)-1-((S)-2-{[1-(4-amino-3-chloro-phenyl)-methanoyl]-amino}-3,3-dimethyl-butanoyl)-pyrrolidine-2-carboxylic acid ((2R,3S)-2-ethoxy-5-oxo-tetrahydro-furan-3-yl)-amide]	0.54 ± 0.26 µM																	
CC[C@H](C)[C@H](NC(=O)OCc1ccccc1)C(=O)N[C@@H](CCC(=O)OC)C(=O)N[C@H](C(=O)N[C@@H](CC(=O)OC)C(=O)CF)[C@@H](C)O [zIETD-FMK] (Cbz-IE(OMe)TD(OMe)-CH2F)	1.47 ± 0.62 µM																	caspases-3/7 activation (caspase-3/7 dye) [2]: inhibition of caspases-3/7 activation
COC(=O)CC[C@H](NC(=O)[C@H](CC(C)C)NC(=O)OCc1ccccc1)C(=O)N[C@@H](Cc1c[nH]cn1)C(=O)N[C@@H](CC(=O)OC)C(=O)CF [zLEHD-FMK] (Cbz-LE(OMe)HD(OMe)-CH2F)	0.8 ± 0.32 µM																	relative potency at inhibiting caspases-3/7 activity (caspases-3/7 dye) [3]: more potent than zIETD-FMK
Ac-DEVD-AMC [reference compound]		47.5 ± 30.8 µM	1.41 ± 0.43	44.68 ± 15.51 RFU/min	482 ± 76.5	702 ± 76.3 µM	1.27 ± 0.18	862.73 ± 31.55 RFU/min	13.3 ± 2.24	561 ± 81.2	0.75 ± 0.12 µM	310 ± 60.4	218.27 ± 2.74 RFU/min	70.3 ± 14.6 µM	7.20 ± 1.02	476.26 ± 38.71 RFU/min	did not cleave	K M [5]: 2.07 ± 0.36 µM; V max [5]: 940.88 ± 31.57 RFU/min; K M [7]: 35.3 ± 5.12 µM; V max [7]: 455.67 ± 64.18 RFU/min; K M [8]: 2.36 ± 0.36 µM; V max [8]: 1266.91 ± 38.79 RFU/min
N-acetyl-Leu-Glu-Ser-Asp-aminomethylcoumarin (Ac-LESD-{AMC}; SMILES CC(=O)N[C@@H](CC(C)C)C(=O)N[C@@H](CCC(=O)O)C(=O)N[C@@H](CO)C(=O)N[C@@H](CC(=O)O)C(=O)Nc1ccc2c(C)cc(=O)oc2c1) [Ac-LESD-AMC]		93.9 ± 6.26 µM	5.01 ± 0.41	465.55 ± 10.25 RFU/min	did not detect processing	1867 ± 388 µM	1.44 ± 0.18	2546.06 ± 156.63 RFU/min	did not detect processing	did not detect processing	9.98 ± 0.37 µM	59.2 ± 3.26	590.08 ± 30.37 RFU/min	87.9 ± 5.38 µM	10.4 ± 1.30	898.63 ± 57.69 RFU/min	0.15	catalytic efficiency within x-fold of preferred substrate Ac-WEHD-AMC ([12]; caspase-5): ≤ 5 fold; K M [12, 15]: 154 ± 13.5 µM; Relative k cat/K M [12, 15]: 4.65 ± 0.43; V max [12, 15]: 703.19 ± 24.07 RFU/min; catalytic efficiency within x-fold of preferred substrate Ac-LEHD-AMC ([9]; caspase-8): ≤ 3 fold; catalytic efficiency within x-fold of preferred substrate Ac-LEHD-AMC ([10]; caspase-10): ≤ 3 fold; K M [13, 16]: 503 ± 58.4 µM; Relative k cat/K M [13, 16]: 0.42 ± 0.02; V max [13, 16]: 211.01 ± 15.01 RFU/min; fold slower cleavage by caspase-11 than by caspase-8 ([13]; relative k cat/K M): ~100 fold; K M [11]: 1513.83 ± 441.20 µM; V max [11]: 208.50 ± 45.00 RFU/min; Relative k cat/K M ([11]; listed as LESD-AMC): 0.15 ± 0.02
B1																		IC50 of inhibition of caspase activity (rate of cleavage of 200 μM Ac-LEHD-AMC) [14]: 7.45 µM
